Assay [1] deals with T1, recombinant human IL6R-his (human, UniProt P08887 20-365).
T1 construct: In house made; the entry includes the C-terminal His tag; also called human IL6R-his protein
T1 sequence: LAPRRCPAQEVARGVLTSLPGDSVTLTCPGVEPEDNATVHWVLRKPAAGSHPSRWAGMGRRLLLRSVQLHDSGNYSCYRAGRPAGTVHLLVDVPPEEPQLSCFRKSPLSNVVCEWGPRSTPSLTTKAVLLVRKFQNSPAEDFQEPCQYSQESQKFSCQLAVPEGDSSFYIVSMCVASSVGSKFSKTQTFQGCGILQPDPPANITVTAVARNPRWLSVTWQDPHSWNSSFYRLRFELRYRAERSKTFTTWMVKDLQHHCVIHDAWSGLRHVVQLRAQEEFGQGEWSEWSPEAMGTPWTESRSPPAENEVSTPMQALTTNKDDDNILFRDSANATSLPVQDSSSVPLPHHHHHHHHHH
Description: SPR Biacore; antibody from diluted cell supernatant captured by anti-human IgG on CM5, human IL6R in flow. The protocol: (§1) Un-reacted moieties on the biosensor surface were blocked with ethanolamine. […] Then, serially diluted recombinant human IL6R-his (in house made, amino acid sequence set forth in SEQ ID NO: 44) or macaca IL6R-his protein (in house made, amino acid sequence set forth in SEQ ID NO: 45), starting at 100 nM with a 2-fold serial dilution in HBS-EP⁺ buffer (provided by Biacore), was flowed onto the chip at a flow rate of 30 μL/min. The antigen-antibody association kinetics was followed for 2 minutes and the dissociation kinetics was followed for 10 minutes. The association and dissociation curves were fit to a 1:1 Langmuir binding model using BIAcore evaluation software.
(§2) Cell supernatants containing humanized antibodies were harvested after six days in shaking flasks and directly subjected to BIAcore test following the protocol described above with modifications.

The next assay addresses T2, macaca IL6R-his protein (macaca mulatta).
T2 chain: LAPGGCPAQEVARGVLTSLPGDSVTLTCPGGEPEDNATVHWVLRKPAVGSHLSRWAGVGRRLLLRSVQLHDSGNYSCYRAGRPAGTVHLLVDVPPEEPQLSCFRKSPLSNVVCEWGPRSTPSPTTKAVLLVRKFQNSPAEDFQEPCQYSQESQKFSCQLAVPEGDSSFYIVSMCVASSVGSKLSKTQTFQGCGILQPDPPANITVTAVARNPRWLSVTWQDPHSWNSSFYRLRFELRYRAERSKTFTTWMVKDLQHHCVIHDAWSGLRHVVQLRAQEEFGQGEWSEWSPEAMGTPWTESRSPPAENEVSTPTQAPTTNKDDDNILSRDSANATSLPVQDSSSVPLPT
Description: SPR Biacore T200; antibody captured on Protein G chip, antigen in flow, 1:1 fit. On the procedure: as §1

The target of assay [2] is T1, recombinant human IL6R-his. The assay is described as above. The protocol:
as §1

For assay [3], the target named is T1, recombinant human IL6R-his. Description: SPR Biacore; antibody captured by anti-human IgG on CM5, human IL6R-his at 100 nM. The protocol: as §1
The recombinant human IL6R-his (amino acid sequence set forth in SEQ ID NO: 44) at the concentration of 100 nM instead of serially diluted recombinant human IL6R-his, was flowed onto the chip at a flow rate of 30 μL/min.
Background: Surface plasmon resonance follows binding to a sensor surface in real time, without labels.

For assay [4], the target named is T1, recombinant human IL6R-his. Description: SPR Biacore; antibody at 10 ug/ml captured by anti-human IgG on CM5, human IL6R in flow. On the procedure:
as §1, §2

B1: humanized antibody hu1H7-V5 (antibody, human IgG1, kappa, V domains shown)
VH: QVQLVQSGAEVKKPGASVKVSCKASGYTFTNYWMHWVRQAPGQGLEWIGEINPTNGRTNYNENFKSRVTLTVDTSTSTVYMELSSLRSEDTAVYYCARLNTHYVFDSWGQGTLVTVSS
VL: EIVLTQSPGTLSLSPGERATLSCSVSSSISSNYLHWYQQKPGLSPRLLISRTSTLASGIPARFSGSGSGTEYTLTISRMQSEDFAVYYCQQGSGIPFTFGQGTKLEIKR
notes: Human IgG1 / kappa
What is called Kd is the constant that tells how readily two partners part at equilibrium. A word on the koff: it is a measure of how fast the partners let go of each other. The term kon denotes a measure of how fast the partners come together. On to B1, for which, in assay [1], the Kd turned out to be 0.526 nM, the koff is 0.000195 s⁻¹ and the on-rate constant (kon) came to 370000 M⁻¹ s⁻¹.

B2: Tocilizumab (antibody, human IgG1, kappa, V domains shown)
VH: QVQLQESGPGLVRPSQTLSLTCTVSGYSITSDHAWSWVRQPPGRGLEWIGYISYSGITTYNPSLKSRVTMLRDTSKNQFSLRLSSVTAADTAVYYCARSLARTTAMDYWGQGSLVTVSS
VL: DIQMTQSPSSLSASVGDRVTITCRASQDISSYLNWYQQKPGKAPKLLIYYTSRLHSGVPSRFSGSGSGTDFTFTISSLQPEDIATYYCQQGNTLPYTFGQGTKVEIKR
notes: In house made; also called benchmark; Actemra
As for B2, the equilibrium dissociation constant (Kd) came to 3.8 nM with macaca IL6R-his protein, 3.26 nM in assay [2], 3.26 nM in assay [3] and 3.81 nM in assay [4].

B3: Chimeric 1H7 (antibody, human IgG1, kappa, V domains shown)
VH: QVQLQQPGTELVKPGASVKLSCKASGYTFTNYWMHWVKQRPGQGLDWIGEINPTNGRTNYNENFKSKATLTVDKSSSTAYMQLSSLTSEDSAVYYCARLNTHYVFDSWGQGTTLTLSS
VL: EIVLTQSPTTLAASPGEKITFTCSVSSSISSNYLHWYQQKPGFSPKLLISRTSTLASGVPARFSGSGSGTSYSLTIGTMEAEDVATYYCQQGSGIPFTFGSGTKLELKR
notes: Mouse variable regions on human IgG1 / human kappa constant regions; also called chimeric antibody 1H7
In the case of B3, in assay [3], the Kd turned out to be 0.4 nM, the dissociation rate constant (koff) is 5.21e-05 s⁻¹ and the kon came out at 130000 M⁻¹ s⁻¹. In assay [4], the dissociation constant Kd came to 0.604 nM, the dissociation rate constant (koff) worked out at 0.000123 s⁻¹ and the kon stood at 204000 M⁻¹ s⁻¹.

The values above are taken from patent US20230167182A1 (BIOSION, published 2023).
